Assays:
[1] = target: HLA-A*01:01; assay: IEDB peptide-MHC binding, purified MHC/competitive/radioactivity; ≥ and ≤ were set here for values at or beyond the usual limits of such assays
[2] = target: HLA-A*01:01; assay: IEDB peptide-MHC binding, purified MHC/competitive/radioactivity; filed as Kd, often an IC50 or EC50 that approximates it; ≥ and ≤ were set here for values at or beyond the usual limits of such assays
[3] = source organism: Neisseria gonorrhoeae
[4] = source organism: Hepatitis B virus adw/Okinawa/PODW282
[5] = source organism: Mycobacterium tuberculosis
[6] = source organism: Clostridium botulinum
[7] = source organism: Clostridium perfringens
[8] = source organism: Human immunodeficiency virus type 1 (NEW YORK-5 ISOLATE)
[9] = source organism: Human papillomavirus 16
[10] = source organism: Hepacivirus hominis

Which IC50 [1, 3] does the source give for NTFVQANLY here?
Its IC50 is 492 nM.

How did the IC50 [1, 4] turn out when LTKQYLNLY was run?
Its IC50 is 84 nM.

For ETLEEITGY, which IC50 ([1]; source organism: Homo sapiens) is on record?
The IC50 was 984 nM.

VTPEQRPLY was tested. Which Kd [2, 5] did it give?
The Kd was 2710 nM.

With FLDQWWTEY as the sequence, how does the IC50 [1, 6] read?
Its IC50 is 1.1 nM.

SSLGLPVSY was tested. Which Kd [2, 5] did it give?
The Kd was 9660 nM.

Which IC50 [1, 3] does the source give for HSAEALQKY here?
The IC50 was 398 nM.

For LGDGVKDHY, which Kd [2, 7] is on record?
Its Kd is 11600 nM.

For KAEVHTFYY, which IC50 [1, 3] is on record?
Its IC50 is 233 nM.

LTAGLDFAY was tested. Which IC50 [1, 3] did it give?
Its IC50 is 26 nM.

Which Kd [2, 6] does the source give for ITYFKKIYY here?
The Kd was 2330 nM.

With GMQNIYIKY as the sequence, how does the Kd [2, 6] read?
The Kd was 2470 nM.

For RSARASSRY, which IC50 [1, 5] is on record?
The IC50 was 622 nM.

For KTQNGKKQY, which Kd [2, 3] is on record?
Its Kd is no less than 50000 nM.

Which Kd [2, 3] does the source give for FDEKNQDKY here?
The Kd was no less than 50000 nM.

Which IC50 [1, 6] does the source give for LTYKYNQFY here?
Its IC50 is 12 nM.

For TTRPGLAGY, which Kd [2, 3] is on record?
The Kd was no less than 35000 nM.

For VREFPEDQY, which Kd [2, 3] is on record?
Its Kd is no less than 50000 nM.

ISDESYRVY was tested. Which IC50 [1, 6] did it give?
The IC50 was 183 nM.

How did the IC50 [1, 5] turn out when VAEGDTVIY was run?
The IC50 was 840 nM.

For TSIPFLHEY, which IC50 [1, 6] is on record?
The IC50 was 618 nM.

For LSGNGHFHY, which IC50 [1, 3] is on record?
The IC50 was 125 nM.

How did the Kd [2, 8] turn out when ETKLGKAGY was run?
Its Kd is no less than 42000 nM.

For FEDPTRRPY, which Kd [2, 9] is on record?
The Kd was no less than 50000 nM.

Which IC50 ([1]; source organism: Homo sapiens) does the source give for GTQLFEDNY here?
The IC50 was 237 nM.

Which IC50 ([1]; source organism: Homo sapiens) does the source give for YTAVVPLVY here?
Its IC50 is 1.5 nM.

Which Kd [2, 3] does the source give for GTYDYWAGY here?
The Kd was 1180 nM.

How did the IC50 [1, 7] turn out when STTAGPNEY was run?
Its IC50 is 785 nM.

With QRESTAMAY as the sequence, how does the Kd [2, 3] read?
The Kd was no less than 50000 nM.

How did the IC50 [1, 3] turn out when ASADKPYSY was run?
The IC50 was 280 nM.

For CSNDKSLVY, which IC50 [1, 6] is on record?
Its IC50 is 115 nM.

IIEDQYNRY was tested. Which IC50 [1, 6] did it give?
Its IC50 is 179 nM.

For EKEVVPDFY, which Kd [2, 3] is on record?
The Kd was no less than 50000 nM.

For TSPYELSLY, which IC50 [1, 6] is on record?
Its IC50 is 255 nM.

With FVEDPNGKY as the sequence, how does the IC50 [1, 6] read?
Its IC50 is 677 nM.

Which Kd [2, 3] does the source give for RSYNLKLSY here?
Its Kd is 6220 nM.

How did the Kd [2, 3] turn out when GKDLYYKNY was run?
Its Kd is no less than 50000 nM.

Which Kd [2, 10] does the source give for FTIFKIRMY here?
Its Kd is 3500 nM.

Which IC50 [1, 10] does the source give for LTPRCMVDY here?
Its IC50 is 538 nM.

DMIVDAIPY was tested. Which Kd [2, 6] did it give?
Its Kd is no less than 50000 nM.

PLDKGIKPY was tested. Which Kd [2, 4] did it give?
Its Kd is 2210 nM.

LHEYKQGDY was tested. Which Kd [2, 6] did it give?
The Kd was no less than 50000 nM.

For PTTGRTSLY, which IC50 [1, 4] is on record?
Its IC50 is 54 nM.

How did the Kd [2, 6] turn out when RNEFSNVEY was run?
Its Kd is no less than 50000 nM.

TQDLVQEKY was tested. Which IC50 ([1]; source organism: Homo sapiens) did it give?
Its IC50 is 20 nM.

How did the Kd [2, 3] turn out when LSQDALTNY was run?
The Kd was 2060 nM.

Which Kd ([2]; source organism: Influenza A virus (A/Texas/1/1977(H3N2))) does the source give for AFDERRNKY here?
Its Kd is no less than 50000 nM.

How did the Kd [2, 6] turn out when KSKSIFFEY was run?
The Kd was 7060 nM.

For RPDLSLRSY, which Kd [2, 3] is on record?
The Kd was no less than 50000 nM.

Which IC50 [1, 5] does the source give for HTEFEGQVY here?
Its IC50 is 6.8 nM.

With KSWQEWNIY as the sequence, how does the Kd [2, 3] read?
The Kd was 17900 nM.

For IRDMTEKQY, which Kd [2, 3] is on record?
Its Kd is no less than 50000 nM.

VQDCNCSIY was tested. Which IC50 [1, 10] did it give?
The IC50 was 78 nM.

ETPGIRYQY was tested. Which Kd [2, 8] did it give?
The Kd was 2150 nM.

Which IC50 [1, 3] does the source give for LTEIDIRDY here?
The IC50 was 65 nM.

Which Kd [2, 3] does the source give for YDEDDYSYY here?
Its Kd is no less than 50000 nM.

With VCDKCLKFY as the sequence, how does the Kd [2, 9] read?
The Kd was no less than 50000 nM.

For DPEMADVTY, which Kd [2, 3] is on record?
Its Kd is no less than 50000 nM.

GTATYLPPY was tested. Which IC50 [1, 3] did it give?
The IC50 was 120 nM.

For QNDYDEDDY, which Kd [2, 3] is on record?
The Kd was 14000 nM.

PGDPPQPEY was tested. Which Kd ([2]; source organism: Hepatitis C virus (isolate Japanese)) did it give?
Its Kd is no less than 50000 nM.

Reference: the Immune Epitope Database (IEDB)
